In the supplement of paper PMC10567573 one finds protein stability index data, which are given here for 72 sequences.

This data set is described as follows: protein stability index of a GFP-peptide fusion (GPS, HEK-293T) (PSI 1-6); higher = more stable.
Setting [1] is: treatment: DMSO, c terminus: a fixed tail appended.
The mark [2] stands for this setting: treatment: MLN4924 1 uM, 8 h, c terminus: a fixed tail appended.
[3] abbreviates: treatment: DMSO, c terminus: native.
Where [4] appears, read: treatment: MLN4924 1 uM, 8 h, c terminus: native.

± gives the standard deviation.
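Further: 24-mer peptide tiles fused after GFP, lentivirally expressed, FACS-sorted into six equal bins by GFP/DsRed ratio, decoded by Illumina sequencing, PSI is the read-weighted mean bin number.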

As for SRPQSSRPVLLSKIEGHQDAVTAA [WDFY1], the protein stability index is, setting by setting: under setting [1], 4.28 ± 0.33; under setting [2], 4.3 ± 0.35.
On the same counts, the results for SRRDESYSRGYRNRRSSRETREYA [RBMY1A1] are 4.5 ± 0.32 and 4.64 ± 0.31.
On to SRRSGKTSAVLKAGRQSVSGRKNS [C6orf223], for which the protein stability index was found to be 4.64 ± 0.28 under setting [1] and 4.78 ± 0.25 under setting [2].
On the same counts, the results for SRTTCLFLHLRTHTEERPYECNHC [ZNF8] are 2.62 ± 0.45 and 2.8 ± 0.43.
On to SRVTMILFVLELEWVLSTGQDKQF [WDFY2], for which the protein stability index is, setting by setting: under setting [1], 3.1 ± 0.31; under setting [2], 3.09 ± 0.66.
Consider SSFLSFAELFSYVLQDRAAKGSLG [FEM1A], for which the protein stability index turned out to be 2.58 ± 0.35 under setting [1] and 2.55 ± 0.81 under setting [2].
Turning to SSISHRFHKDCASRVNNASYCPHC [EHMT1], the protein stability index stood at 3.48 ± 0.67 under setting [1] and 4.11 ± 0.56 under setting [2].
On the same counts, the results for SSITEAVPSESEPPALQNNLLSPL [NFE2L1] are 4.75 ± 0.12 and 4.75 ± 0.21.
Take SSKVSGVLKKLAQSRRTALATSPI [YJU2B]: the protein stability index was 2.94 ± 0.22 under setting [1] and 3 ± 0.26 under setting [2].
SSSSFDPSVFDGLGDLLMPTMAPA [SNAP91] returned a protein stability index under setting [1] of 3.55 ± 0.25 and a protein stability index under setting [2] of 3.72 ± 0.33.
As for SVDGLTLSPDPEERPGAEGAPLLP [ACBD3], the protein stability index runs as follows: under setting [1], 5.46 ± 0.19; under setting [2], 5.54 ± 0.18.
Take SVNFDGETIEGAPPLWAASAAGHL [FEM1C]: the protein stability index is, setting by setting: under setting [1], 3.52 ± 0.23; under setting [2], 3.6 ± 0.23.
On the same counts, the results for SVNSDCETYMSADDLRINLWHLAI [PPP2R2C] are 2.52 ± 0.54 and 2.29 ± 0.21.
For the sequence SVRISFAKGWGPCYSRQFITSCPC [SMAD6], the protein stability index by setting is: under setting [1], 2.79 ± 0.67; under setting [2], 2.78 ± 0.85.
Turning to SVSVWDLAAPSLHVKEQLPCAGLN [TLE6], the protein stability index was 2.91 ± 0.2 under setting [1] and 3.08 ± 0.3 under setting [2].
With SYAHSVEDTHVQIGQVHEEFKQNI [FCHO1], the protein stability index is, setting by setting: under setting [1], 4.55 ± 0.25; under setting [2], 4.7 ± 0.081.
Take SYRTESAQRQACMYASSAPPSEPV [TBX5]: the protein stability index worked out at 3.79 ± 0.16 under setting [1] and 4.07 ± 0.24 under setting [2].
Turning to TATCTTNNNPNSCVNIKKIFTDV [KCNA3], the protein stability index reads like this: under setting [3], 4.08 ± 0.24; under setting [4], 3.97 ± 0.11.
In the case of TDAFLDRPPTPLFIPAKTGKDVAT [RSPH3], the protein stability index reads like this: under setting [1], 4.58 ± 0.18; under setting [2], 4.6 ± 0.22.
TDHILESLYRDIRDIQDENQLLVA [STX11]: the protein stability index is 3.22 ± 0.3 under setting [1] and 3.24 ± 0.39 under setting [2].
Turning to TDRSFNIVDIKPANMEDLTEVITA [PPP2R2C], the protein stability index runs as follows: under setting [1], 4.42 ± 0.14; under setting [2], 4.37 ± 0.15.
In the case of TEDIQTRQYRSIEVLIGAGYSTPA [SRPK2], the protein stability index amounted to 2.94 ± 0.4 under setting [1] and 2.87 ± 0.5 under setting [2].
On the same counts, the results for TEKKQTKVEFPEARIYEETLNILL [KCTD10] are 2.12 ± 0.1 and 2.23 ± 0.33.
As to TELPELLKLYYRRLFPYSQYYRWL [PRIM1], the protein stability index is 2.93 ± 0.79 under setting [1] and 2.47 ± 0.67 under setting [2].
Consider TEPWGGTAIRPLKILPWSPEKIGT [PNLIPRP1], for which the protein stability index is, setting by setting: under setting [1], 3.45 ± 0.26; under setting [2], 3.65 ± 0.36.
Regarding TFFCTNATIHGAIRLVCSRGNRLK [SCNN1D], the protein stability index runs as follows: under setting [1], 2.54 ± 0.27; under setting [2], 2.41 ± 0.41.
For TGEAARPHKGLNLHPLLSGRLGRW [PCDHGC5], the protein stability index runs as follows: under setting [1], 2.77 ± 0.17; under setting [2], 2.9 ± 0.23.
On the same counts, the results for TGGAAGAGGAGRGEDEENREHRVR [KCTD13] are 5.24 ± 0.26 and 5.53 ± 0.32.
For TGLVYDQNMMNHCNLWDSHHPEVP [HDAC6], the protein stability index runs as follows: under setting [1], 3.08 ± 0.29; under setting [2], 3.25 ± 0.18.
On the same counts, the results for TGNYRKGNAHLGYSLVTHIPAGAR [ADAMTSL2] are 2.95 ± 0.17 and 2.69 ± 0.3.
On the same counts, the results for TIEDEDTKVRKQEIIKVTEQLIEA [CAMK2A] are 5.27 ± 0.28 and 5.02 ± 0.25.
For the sequence TKITSKHVKMMLSGVCLFAVFIAL [PTGFR], the protein stability index under setting [1] stood at 3.2 ± 0.24 and the protein stability index under setting [2] is 2.78 ± 0.1.
In turn, TKKGDLQWNAGEKKLTGGANWQPK [SNAP91] had a protein stability index under setting [1] of 4.07 ± 0.13 and a protein stability index under setting [2] of 4.26 ± 0.23.
On the same counts, the results for TKRVRQLLDLDPEVECLKANTNEV [GOLPH3] are 4.29 ± 0.32 and 4.62 ± 0.22.
On the same counts, the results for TLCAMLPLLLFTYLNSFLHQRIPQ [SLC29A1] are 3.18 ± 0.14 and 3.06 ± 0.17.
On the same counts, the results for TLPTLPAKVYVGVKQEIAEMRIPA [NCF4] are 3.36 ± 0.34 and 3.7 ± 0.39.
In the case of TLRLRENCVLSSSPNPFPEISRGE [ZNF8], the protein stability index runs as follows: under setting [1], 3.61 ± 0.33; under setting [2], 3.66 ± 0.33.
On to TLSLKQTILDKEEKQRRNVAKNY [TTC32], for which the protein stability index by setting is: under setting [3], 4.27 ± 0.36; under setting [4], 4.29 ± 0.54.
With TLYLIVALATVSLLSLVTFTFLSA [PCDHGC5], the protein stability index turned out to be 3.2 ± 0.13 under setting [1] and 3.26 ± 0.29 under setting [2].
For TNGELNTDDPTAGRSNAPITAPTE [CSNK1G3], the protein stability index by setting is: under setting [1], 5.41 ± 0.15; under setting [2], 5.41 ± 0.16.
In the case of TNGHGGEAAEGKSLGSALKPGEGR [TRIM29], the protein stability index reads like this: under setting [1], 5.08 ± 0.24; under setting [2], 5.27 ± 0.33.
On the same counts, the results for TNGSFSPSGNNGSVNWRTGSFHGP [DLC1] are 3.09 ± 0.3 and 3.11 ± 0.23.
On the same counts, the results for TNLLEGAVAFMPEDITKGTQSLPT [AUP1] are 4.55 ± 0.12 and 4.47 ± 0.17.
For the sequence TPGSRIESILMSLPLTARWEYMHS [CPOX], the protein stability index is 2.33 ± 0.27 under setting [1] and 2.24 ± 0.12 under setting [2].
Turning to TPYPNLYPDQSPSEDWTMEERFRP [CLCN6], the protein stability index runs as follows: under setting [1], 3.85 ± 0.26; under setting [2], 4.07 ± 0.15.
Turning to TQHVNNWMKHNVADSQITTIGNLV [PTPRD], the protein stability index came out at 2.9 ± 0.44 under setting [1] and 3.12 ± 0.42 under setting [2].
Turning to TRVSQLGLQVEGLRRRLEELQQEL [LRRC45], the protein stability index worked out at 4.36 ± 0.24 under setting [1] and 4.55 ± 0.46 under setting [2].
Regarding TSEVDKRRTRPRHHHGRSRPDRSS [CHGB], the protein stability index is, setting by setting: under setting [1], 5.07 ± 0.37; under setting [2], 5.06 ± 0.31.
In the case of TSITLTASRVSKVNDKRRKKSGEK [KMT2E], the protein stability index reads like this: under setting [1], 4.04 ± 0.28; under setting [2], 4.47 ± 0.17.
On to TSLQGLTGTPLVAGSPIRHENAVQ [ISL2], for which the protein stability index came to 4.31 ± 0.33 under setting [1] and 4.36 ± 0.16 under setting [2].
Turning to TSRFGSQCMQPNNIMGIENICELA [NR2F2], the protein stability index was 2.88 ± 0.28 under setting [1] and 2.74 ± 0.35 under setting [2].
Take TSRNLIGGADIIVIKYNVNDKFSF [RHOBTB3]: the protein stability index is, setting by setting: under setting [1], 2.83 ± 1.2; under setting [2], 2.68 ± 1.6.
TSSGLATASFRTSKYLLEEWFQNC [TEKT4] yielded a protein stability index under setting [1] of 2.68 ± 0.21 and a protein stability index under setting [2] of 2.7 ± 0.14.
For TTGPNPFTTLTDRELEEYRREVER [ADD1], the protein stability index by setting is: under setting [1], 5.08 ± 0.18; under setting [2], 5.16 ± 0.21.
Turning to TTLKGHEGSVACLWWDPIQRLLFS [WDFY1], the protein stability index reads like this: under setting [1], 2.08 ± 0.27; under setting [2], 2.35 ± 0.39.
Take TTREIRRQEAIYEMSRGEQDLIED [NET1]: the protein stability index was determined as 5.25 ± 0.16 under setting [1] and 5.13 ± 0.17 under setting [2].
Take TTTRRIVDGKVVSETNDTKVLRH [KRT18]: the protein stability index runs as follows: under setting [3], 5.19 ± 0.24; under setting [4], 5.28 ± 0.3.
For the sequence TVPEILVHNIVIFMRTSVKISYIG [TMEM106C], the protein stability index by setting is: under setting [1], 3.01 ± 0.38; under setting [2], 3.11 ± 0.29.
On to TVTLTVAVADSIPQVLADLGSFES [PCDHGA10], for which the protein stability index by setting is: under setting [1], 2.28 ± 0.32; under setting [2], 2.11 ± 0.093.
On the same counts, the results for TWSNQTQNIQSWSNHSWNTQTWCT [NANOGP8] are 2.27 ± 0.15 and 2.27 ± 0.26.
TYGQPKQAPPADFIPAHVAFDKKV [EFHC1] returned a protein stability index under setting [1] of 3.81 ± 0.34 and a protein stability index under setting [2] of 4.16 ± 0.061.
On the same counts, the results for TYGWTANMERIMKAQALRDNSTMG [HSP90AB1] are 2.87 ± 0.24 and 3.31 ± 0.3.
On the same counts, the results for TYPAHQNRVSAIIFSLATEWVIST [WDFY1] are 3.57 ± 0.89 and 2.92 ± 1.1.
Turning to VAFRGLKGKKLYPVVSAVWGHCEI [SPSB1], the protein stability index runs as follows: under setting [1], 2.62 ± 0.13; under setting [2], 3.16 ± 0.071.
Consider VAHCHQSAIVLGDLKLRKFVFSTE [TRIB1], for which the protein stability index by setting is: under setting [1], 2.25 ± 0.36; under setting [2], 2.36 ± 0.63.
Regarding VASFKFDAGEVSYLPRDFSTYRPL [MYORG], the protein stability index reads like this: under setting [1], 2.28 ± 0.37; under setting [2], 2.54 ± 0.17.
As for VCDESVRKLSSAVRSGIVEYLSLV [PRIM1], the protein stability index reads like this: under setting [1], 2.34 ± 0.83; under setting [2], 2.1 ± 0.3.
On the same counts, the results for VDDVSVSLRLWDTFGDHHKDRRFA [RHOBTB2] are 3.28 ± 0.23 and 3.19 ± 0.28.
On to VDICHMLVQFCRLGSPRSRGCLW [EHMT1], for which the protein stability index runs as follows: under setting [3], 2.67 ± 0.14; under setting [4], 2.71 ± 0.66.
For the sequence VDLVQKYLEKYYNLKNDGRQVEKR [MMP1], the protein stability index reads like this: under setting [1], 2.42 ± 0.25; under setting [2], 2.68 ± 0.36.
As for VDQMNRIVEVLGIPPAAMLDQAPK [DYRK1B], the protein stability index under setting [1] is 3.62 ± 0.25 and the protein stability index under setting [2] turned out to be 3.52 ± 0.15.
In the case of VEAKSWTASSSYGKGEGPIWLDNL [LOXL2], the protein stability index amounted to 2.42 ± 0.31 under setting [1] and 2.61 ± 0.74 under setting [2].
